# T1: PvSUB1 peptide substrate KLVGADDVSLA, tagged with fluorophore and quencher
# T1 chain: KLVGADDVSLA
# T2: PfSUB1 peptide substrate KLVSADNIDIS, tagged with fluorophore and quencher
# T2 chain: KLVSADNIDIS
# What was measured:
# [1] = target: T1, PvSUB1 peptide substrate KLVGADDVSLA, …
# [2] = target: T2, PfSUB1 peptide substrate KLVSADNIDIS, …
Protein,apparent Km [1],apparent Km [2]
"recombinant enzymatically active form of Plasmodium vivax SUB1-Belem (PvSUB1-Belem), following auto-maturation at the KLVGAD//DVSLA site (protein) DVSLASVKDAVRRGESSVNWGKLRSTMLEVPSGESPPSHAASSGSPFDDDDDLLSEAALHREEAHLAGSKTTKGYKFNDEYRNLQWGLDLARLDETQDLINANRVSVTKICVIDSGIDYNHPDLRNNIDVNVKELHGRKGVDDDSNGVVDDVYGANFVNNSGDPMDDNYHGTHVSGIISAVGNNGIGIVGVDGHSKLVICKALDQHKLGRLGDMFKCIDYCISRQAHMINGSFSFDEYSNIFNASVEHLRSLGILFFVSASNCAHDKLSKPDIAKCDLAVNHRYPPILSKTHNNVIAVANLKRDLDESYSLSVNSFYSNIYCQLAAPGTNIYSTTPMNNYRKLNGTSMASPHVAAIASIVRSINPNLTYLQIVEILRNAIVKLPSLTERVSWGGYVDILRAVNLAIDSKAAPYIKSHSWFRWKQGSRRHHHHHH",19.7 µM±1.7,–
recombinant Plasmodium falciparum SUB1 (PfSUB1) (protein) MLLVNQSHQGFNKEHTSKMVSAIVLYVLLAAAAHSAFAADLGSKEVRSEENGKIQDDAKKIVSELRFLEKVEDVIEKSNIGGNEVDADENSFNPDTEVPIEEIEEIKMRELKDVKEEKNKNDNHNNNNNNISSSSSSSSNTFGEEKEEVSKKKKKLRLIVSENHATTPSFFQESLLEPDVLSFLESKGNLSNLKNINSMIIELKEDTTDDELISYIKILEEKGALIESDKLVSADNIDISGIKDAIRRGEENIDVNDYKSMLEVENDAEDYDKMFGMFNESHAATSKRKRHSTNERGYDTFSSPSYKTYSKSDYLYDDDNNNNNYYYSHSSNGHNSSSRNSSSSRSRPGKYHFNDEFRNLQWGLDLSRLDETQELINEHQVMSTRICVIDSGIDYNHPDLKDNIELNLKELHGRKGFDDDNNGIVDDIYGANFVNNSGNPMDDNYHGTHVSGIISAIGNNNIGVVGVDVNSKLIICKALDEHKLGRLGDMFKCLDYCISRNAHMINGSFSFDEYSGIFNSSVEYLQRKGILFFVSASNCSHPKSSTPDIRKCDLSINAKYPPILSTVYDNVISVANLKKNDNNNHYSLSINSFYSNKYCQLAAPGTNIYSTAPHNSYRKLNGTSMAAPHVAAIASLIFSINPDLSYKKVIQILKDSIVYLPSLKNMVAWAGYADINKAVNLAIKSKKTYINSNISNKWKKKSRYLHHHHHH,–,30.2 µM±3.4

# Source: patent publication US20140134657
